Assay results published in paper PMC8466238, “Development of High Affinity Calcitonin Analog Fragments Targeting Extracellular Domains of Calcitonin Family Receptors” (Biomolecules, 2021).
The star is where a group is joined. FITC = O=C1OC2(c3ccc(O)cc3Oc3cc(O)ccc32)c2ccc(NC(=S)*)cc21; Ahx = NCCCCCC(=O)O

Legend:
CGRP receptor = details: versus CGRP(27–37); cited from earlier work
Description: The mutational strategies for developing high-affinity sCT peptide fragments came from the systemic report on CGRP and its high-affinity analogs. […] This supports the idea that applying affinity-enhancing mutations to the cor ...

[1] = molecular target: T1, RAMP1-CTR ECD fusion protein (hRAMP1.24–111-(GSA)3-hCTR.34–141-H6) (human, UniProt O60894 24-111; P30988 34-141); test: fluorescence polarisation; competition binding, full curves: FITC-AC413(6–25) Y25P probe 10 nM, RAMP1-CTR ECD 77 nM, RAMP2-CTR ECD 67 nM or RAMP3-CTR ECD 252 nM, competitive peptide at multiple concentrations, all in solution; KI from non-linear regression of anisotropy; details: both partners purified
T1 construct: human receptor activity-modifying protein 1 (RAMP1), extracellular domain, residues 24-111; linker, printed as (GSA)3; human calcitonin receptor (CTR), extracellular domain, residues 34-141; Secreted from a pHLsec-based vector; also called AMY receptor 1 ECD; RAMP1 ECD-CTR ECD fusion; source: HEK293T, transiently transfected, secreted to cell culture media, purified (IMAC, SEC)
T1 chain: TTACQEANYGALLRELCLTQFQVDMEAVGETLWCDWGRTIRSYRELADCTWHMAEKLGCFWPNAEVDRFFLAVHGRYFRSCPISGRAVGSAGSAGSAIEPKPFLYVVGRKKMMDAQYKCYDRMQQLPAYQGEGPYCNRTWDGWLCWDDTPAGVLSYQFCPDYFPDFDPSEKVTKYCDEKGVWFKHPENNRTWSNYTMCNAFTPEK

[2] = molecular target: T2, RAMP2-CTR ECD fusion protein (hRAMP2.55–140-(GSA)3-hCTR.34–141-H6) (human, UniProt O60895 55-140; P30988 34-141); test: as above; details: both partners purified
T2 construct: human receptor activity-modifying protein 2 (RAMP2), extracellular domain, residues 55-140; linker, printed as (GSA)3; human calcitonin receptor (CTR), extracellular domain, residues 34-141; Secreted from a pHLsec-based vector; also called AMY receptor 2 ECD; RAMP2 ECD-CTR ECD fusion; source: HEK293T, transiently transfected, secreted to cell culture media, purified (IMAC, SEC)
T2 chain: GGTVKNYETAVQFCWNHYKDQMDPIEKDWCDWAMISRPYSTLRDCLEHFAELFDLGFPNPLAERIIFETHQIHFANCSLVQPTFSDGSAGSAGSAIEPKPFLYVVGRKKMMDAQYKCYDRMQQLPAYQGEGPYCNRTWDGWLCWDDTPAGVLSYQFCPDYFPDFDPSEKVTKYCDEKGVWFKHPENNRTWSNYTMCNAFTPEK

[3] = molecular target: T3, RAMP3-CTR ECD fusion protein (hRAMP3.25–112-(GSA)3-hCTR.34–141-H6) (human, UniProt O60896 25-112; P30988 34-141); test: as above; details: both partners purified
T3 construct: human receptor activity-modifying protein 3 (RAMP3), extracellular domain, residues 25-112; linker, printed as (GSA)3; human calcitonin receptor (CTR), extracellular domain, residues 34-141; Secreted from a pHLsec-based vector; also called AMY receptor 3 ECD; RAMP3 ECD-CTR ECD fusion protein; source: HEK293S GnTI-, transiently transfected (PEI), secreted to cell culture media, purified (IMAC, SEC)
T3 chain: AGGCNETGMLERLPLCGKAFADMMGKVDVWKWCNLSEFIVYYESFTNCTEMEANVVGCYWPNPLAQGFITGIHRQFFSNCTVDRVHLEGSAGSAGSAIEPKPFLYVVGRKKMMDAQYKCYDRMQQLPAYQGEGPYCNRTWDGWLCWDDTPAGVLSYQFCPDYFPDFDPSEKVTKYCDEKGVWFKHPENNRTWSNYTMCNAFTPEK

FITC-labeled sCT(22–32) = molecular target: T4, FITC-labeled sCT(22–32) (salmon, SMILES …); test: fluorescence polarisation; saturation binding: FITC-labeled peptide probe (10 nM) with rising receptor ECD concentrations; receptor ECD concentration at half of the maximal anisotropy; details: both partners purified
T4 construct: salmon calcitonin (sCT), residues 22-32; numbers count on: the mature 32-residue hormone; peptide probe of the FP assay with the CTR ECD; also called FITC-sCT(22–32); source: synthetic peptide (Genscript, HPLC-purified)
T4 peptide: {FITC-Ahx}-YPRTNTGSGTP-NH2

For “CGRPmut: human alpha CGRP(27–37) with N31D, S34P, and K35F mutations”, the “increase in CGRP affinity for its receptor” value (CGRP receptor) is listed as 100 fold.

B1: FITC-labeled AC413(6–25) with Y25P mutation (peptide)
peptide: {FITC-Ahx}-ANFLVRLQTYPRTNVGANTP-NH2
SMILES: CC(C)C[C@H](NC(=O)[C@H](CCCNC(=N)N)NC(=O)[C@@H](NC(=O)[C@H](CC(C)C)NC(=O)[C@H](Cc1ccccc1)NC(=O)[C@H](CC(N)=O)NC(=O)[C@H](C)NC(=O)CCCCCNC(=S)Nc1ccc2c(c1)C(=O)OC21c2ccc(O)cc2Oc2cc(O)ccc21)C(C)C)C(=O)N[C@@H](CCC(N)=O)C(=O)N[C@H](C(=O)N[C@@H](Cc1ccc(O)cc1)C(=O)N1CCC[C@H]1C(=O)N[C@@H](CCCNC(=N)N)C(=O)N[C@H](C(=O)N[C@@H](CC(N)=O)C(=O)N[C@H](C(=O)NCC(=O)N[C@@H](C)C(=O)N[C@@H](CC(N)=O)C(=O)N[C@H](C(=O)N1CCC[C@H]1C(N)=O)[C@@H](C)O)C(C)C)[C@@H](C)O)[C@@H](C)O
notes: residues 6-25 of AC413, an antagonistic amylin peptide analog, with Y25P; peptide probe of the FP assay with the AMY receptor ECDs; also called FITC-AC413(6–25) Y25P; source: synthetic peptide (Genscript, HPLC-purified)
B1: binds [1]; binds [2]; binds [3].

B2: calcitonin receptor extracellular domain (hCTR.34–141-H6) (receptor, human, UniProt P30988 34-141, looked up)
chain: IEPKPFLYVVGRKKMMDAQYKCYDRMQQLPAYQGEGPYCNRTWDGWLCWDDTPAGVLSYQFCPDYFPDFDPSEKVTKYCDEKGVWFKHPENNRTWSNYTMCNAFTPEK
notes: human calcitonin receptor (CTR), extracellular domain, residues 34-141; Secreted from a pHLsec-based vector; also called CTR ECD; purified CTR ECD; source: HEK293T, transiently transfected, secreted to cell culture media, purified (IMAC, SEC)
In the case of B2, the “receptor ECD concentration that produced a half of the maximal anisotropy with the peptide probe” value (FITC-labeled sCT(22–32)) is reported as 500 nM.
